Legend:
VEGF-A165 = target: T1, VEGF-A165 (UniProt P15692-4 27-191); assay: Biacore T200 SPR at 37 C, binder captured on Protein A chip, VEGF-A165 0.19 to 15 nM in five steps, 60 min dissociation, 1:1 Langmuir fit
T1 construct: analyte of the Biacore assays
Experimental: FIGS. 14A-14F illustrate the results for a series of Biacore assays used to determine the affinity between Anti-VEGF agents and VEGF. Binding kinetics between molecules were measured using a Biacore T200 (GE Healthcare) at 37° C. in buffer HBS-EP+ containing 1 mg/mL BSA. […] The sensor chip surface was regenerated by 60 seconds injection of 10 mM Glycine, pH 1.7 at a flow rate of 50 μl/min. All sensorgrams were double reference subtracted and fit using a 1:1 Langmuir binding model.

human IL-6 [1] = target: T2, human IL-6 (human, UniProt P05231 30-212); assay: SPR (Biacore), supernatant antibody on Protein A chip, IL-6 flowed, 37 C
human IL-6 [2] = target: T2, human IL-6; assay: SPR (Biacore), purified antibody on Protein A chip, IL-6 flowed, 37 C
Experimental: Antibodies were captured on a Protein A chip (GE) by injecting 1:20 cell supernatant dilutions at 10 μL/min for 60 seconds. […] The sensor chip was regenerated by a 60 seconds injection of 10 mM Glycine pH 1.7 at the flow rate of 50 μL/min. […] For this setup, 1 μg/mL of purified antibody was injected over a Protein A chip at 10 μL/min for 25 seconds. […] The sensor chip was regenerated by a 60 seconds injection of 10 mM Glycine pH 1.7 at flow rate of 50 μL/min. Data analysis for supernatant and purified samples were performed using BIAevaluation software (GE). All sensorgrams were double reference subtracted and fit using a 1:1 Langmuir binding model.

T1 sequence (P15692 other isoform, or with tags, fused parts or gaps limits assumed): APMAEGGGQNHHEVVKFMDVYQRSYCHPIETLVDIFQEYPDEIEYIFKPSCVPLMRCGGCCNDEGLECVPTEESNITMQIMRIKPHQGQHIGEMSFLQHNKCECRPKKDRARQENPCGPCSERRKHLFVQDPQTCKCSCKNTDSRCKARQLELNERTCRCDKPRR
T2 sequence (P05231 30-212 limits assumed): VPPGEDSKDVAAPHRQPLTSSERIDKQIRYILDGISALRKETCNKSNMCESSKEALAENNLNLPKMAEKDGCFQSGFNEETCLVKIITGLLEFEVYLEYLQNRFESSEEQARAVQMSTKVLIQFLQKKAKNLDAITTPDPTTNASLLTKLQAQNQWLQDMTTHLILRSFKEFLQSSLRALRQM

B1: VEGFR_variant_1-Anti-IL-6 (T94I) (other)
fusion: SDTGRPFVEMYSEIPEIIHMTEGRELVIPCRVTSPNITVTLKKFPLDTLIPDGKRIIWDSRKGFIISNATYKEIGLLTCEATVNGHLYKTNYLIHRQTNTIIDVVLSPSHGIELSVGEKLVLNCTARTELNVGIDFNWEYPSSKHQHKKLVNRDLKTQSGSEMKKFLSTLTIDGVTRSDQGLYTCAASSGLMTKKNSTFVRVHEKGGGGSGGGGSEVQLVESGGGLVQPGGSLRLSCAASGFTFSPFAISWVRQAPGKGLEWVAKISPGGSWTYYSDTVTDRFTFSLDTSKSTAYLQMNSLRAEDTAVYYCARQLWGYYALDVWGQGTLVTVSSASTKGPSVFPLAPSSKSTSGGTAALGCLVKDYFPEPVTVSWNSGALTSGVHTFPAVLQSSGLYSLSSVVTVPSSSLGTQTYICNVNHKPSNTKVDKKVEPKSCDKTHTCPPCPAPEAAGAPSVFLFPPKPKDTLMISRTPEVTCVVVDVSHEDPEVKFNWYVDGVEVHNAKTKPREEQYNSTYRVVSVLTVLHQDWLNGKEYKCKVSNKALPAPIEKTISKAKGQPREPQVYTLPPSREEMTKNQVSLTCLVKGFYPSDIAVEWESNGQPENNYKTTPPVLDSDGSFFLYSKLTVDKSRWQQGNVFSCSVMHEALHNHYTQKSLSCSPGK
light: DIQLTQSPSSLSASVGDRVTITCSASISVSYLYWYQQKPGKAPKLLIYDDSSLASGVPSRFSGSGSGTDFTLTISSLQPEDFATYYCQQWSGYPYTFGQGTKVEIKRTVAAPSVFIFPPSDEQLKSGTASVVCLLNNFYPREAKVQWKVDNALQSGNSQESVTEQDSKDSTYSLSSTLTLSKADYEKHKVYACEVTHQGLSSPVTKSFNRGEC
- Kd (VEGF-A165): 0.0185 nM
- koff (VEGF-A165): 0.00199 s⁻¹
- kon (VEGF-A165): 1.08e+08 M⁻¹ s⁻¹

B2: VEGFR_variant_2-Anti-IL-6 (H95I) (other)
fusion: SDTGRPFVEMYSEIPEIIHMTEGRELVIPCRVTSPNITVTLKKFPLDTLIPDGKRIIWDSRKGFIISNATYKEIGLLTCEATVNGHLYKTNYLTIRQTNTIIDVVLSPSHGIELSVGEKLVLNCTARTELNVGIDFNWEYPSSKHQHKKLVNRDLKTQSGSEMKKFLSTLTIDGVTRSDQGLYTCAASSGLMTKKNSTFVRVHEKGGGGSGGGGSEVQLVESGGGLVQPGGSLRLSCAASGFTFSPFAISWVRQAPGKGLEWVAKISPGGSWTYYSDTVTDRFTFSLDTSKSTAYLQMNSLRAEDTAVYYCARQLWGYYALDVWGQGTLVTVSSASTKGPSVFPLAPSSKSTSGGTAALGCLVKDYFPEPVTVSWNSGALTSGVHTFPAVLQSSGLYSLSSVVTVPSSSLGTQTYICNVNHKPSNTKVDKKVEPKSCDKTHTCPPCPAPEAAGAPSVFLFPPKPKDTLMISRTPEVTCVVVDVSHEDPEVKFNWYVDGVEVHNAKTKPREEQYNSTYRVVSVLTVLHQDWLNGKEYKCKVSNKALPAPIEKTISKAKGQPREPQVYTLPPSREEMTKNQVSLTCLVKGFYPSDIAVEWESNGQPENNYKTTPPVLDSDGSFFLYSKLTVDKSRWQQGNVFSCSVMHEALHNHYTQKSLSCSPGK
light: DIQLTQSPSSLSASVGDRVTITCSASISVSYLYWYQQKPGKAPKLLIYDDSSLASGVPSRFSGSGSGTDFTLTISSLQPEDFATYYCQQWSGYPYTFGQGTKVEIKRTVAAPSVFIFPPSDEQLKSGTASVVCLLNNFYPREAKVQWKVDNALQSGNSQESVTEQDSKDSTYSLSSTLTLSKADYEKHKVYACEVTHQGLSSPVTKSFNRGEC
- Kd (VEGF-A165): 0.0143 nM
- koff (VEGF-A165): 0.00164 s⁻¹
- kon (VEGF-A165): 1.15e+08 M⁻¹ s⁻¹

B3: VEGFR_variant_3-Anti-IL-6 (T94I/H95I) (other)
fusion: SDTGRPFVEMYSEIPEIIHMTEGRELVIPCRVTSPNITVTLKKFPLDTLIPDGKRIIWDSRKGFIISNATYKEIGLLTCEATVNGHLYKTNYLIIRQTNTIIDVVLSPSHGIELSVGEKLVLNCTARTELNVGIDFNWEYPSSKHQHKKLVNRDLKTQSGSEMKKFLSTLTIDGVTRSDQGLYTCAASSGLMTKKNSTFVRVHEKGGGGSGGGGSEVQLVESGGGLVQPGGSLRLSCAASGFTFSPFAISWVRQAPGKGLEWVAKISPGGSWTYYSDTVTDRFTFSLDTSKSTAYLQMNSLRAEDTAVYYCARQLWGYYALDVWGQGTLVTVSSASTKGPSVFPLAPSSKSTSGGTAALGCLVKDYFPEPVTVSWNSGALTSGVHTFPAVLQSSGLYSLSSVVTVPSSSLGTQTYICNVNHKPSNTKVDKKVEPKSCDKTHTCPPCPAPEAAGAPSVFLFPPKPKDTLMISRTPEVTCVVVDVSHEDPEVKFNWYVDGVEVHNAKTKPREEQYNSTYRVVSVLTVLHQDWLNGKEYKCKVSNKALPAPIEKTISKAKGQPREPQVYTLPPSREEMTKNQVSLTCLVKGFYPSDIAVEWESNGQPENNYKTTPPVLDSDGSFFLYSKLTVDKSRWQQGNVFSCSVMHEALHNHYTQKSLSCSPGK
light: DIQLTQSPSSLSASVGDRVTITCSASISVSYLYWYQQKPGKAPKLLIYDDSSLASGVPSRFSGSGSGTDFTLTISSLQPEDFATYYCQQWSGYPYTFGQGTKVEIKRTVAAPSVFIFPPSDEQLKSGTASVVCLLNNFYPREAKVQWKVDNALQSGNSQESVTEQDSKDSTYSLSSTLTLSKADYEKHKVYACEVTHQGLSSPVTKSFNRGEC
- Kd (VEGF-A165): 0.0187 nM
- koff (VEGF-A165): 0.00266 s⁻¹
- kon (VEGF-A165): 1.42e+08 M⁻¹ s⁻¹

B4: anti-IL-6 antibody, heavy chain T63E, G66D / light chain M32L, M50D, N52S, M88Q (antibody, human IgG1, V domains shown)
VH: EVQLVESGGGLVQPGGSLRLSCAASGFTFSPFAMSWVRQAPGKGLEWVAKISPGGSWTYYSDEVTDRFTFSLDTSKSTAYLQMNSLRAEDTAVYYCARQLWGYYALDIWGQGTLVTVSS
VL: DIQLTQSPSSLSASVGDRVTITCSASISVSYLYWYQQKPGKAPKLLIYDDSSLASGVPSRFSGSGSGTDFTLTISSLQPEDFATYYCQQWSGYPYTFGQGTKVEIK
notes: Human IgG1
- Kd (human IL-6 [1]): 0.242 nM
- koff (human IL-6 [1]): 0.000485 s⁻¹
- kon (human IL-6 [1]): 2e+06 M⁻¹ s⁻¹
- Kd (human IL-6 [2]): 0.198 nM
- koff (human IL-6 [2]): 0.000327 s⁻¹
- kon (human IL-6 [2]): 1.65e+06 M⁻¹ s⁻¹

B5: anti-IL-6 antibody, heavy chain T63Q, G66D / light chain M32L, M50D, N52S, M88Q (antibody, human IgG1, V domains shown)
VH: EVQLVESGGGLVQPGGSLRLSCAASGFTFSPFAMSWVRQAPGKGLEWVAKISPGGSWTYYSDQVTDRFTFSLDTSKSTAYLQMNSLRAEDTAVYYCARQLWGYYALDIWGQGTLVTVSS
VL: DIQLTQSPSSLSASVGDRVTITCSASISVSYLYWYQQKPGKAPKLLIYDDSSLASGVPSRFSGSGSGTDFTLTISSLQPEDFATYYCQQWSGYPYTFGQGTKVEIK
notes: Human IgG1
- Kd (human IL-6 [1]): 0.259 nM
- koff (human IL-6 [1]): 0.000461 s⁻¹
- kon (human IL-6 [1]): 1.78e+06 M⁻¹ s⁻¹
- Kd (human IL-6 [2]): 0.201 nM
- koff (human IL-6 [2]): 0.000341 s⁻¹
- kon (human IL-6 [2]): 1.69e+06 M⁻¹ s⁻¹

B6: anti-IL-6 antibody, heavy chain T65Q, G66D / light chain M32L, M50D, N52S, M88Q (antibody, human IgG1, V domains shown)
VH: EVQLVESGGGLVQPGGSLRLSCAASGFTFSPFAMSWVRQAPGKGLEWVAKISPGGSWTYYSDTVQDRFTFSLDTSKSTAYLQMNSLRAEDTAVYYCARQLWGYYALDIWGQGTLVTVSS
VL: DIQLTQSPSSLSASVGDRVTITCSASISVSYLYWYQQKPGKAPKLLIYDDSSLASGVPSRFSGSGSGTDFTLTISSLQPEDFATYYCQQWSGYPYTFGQGTKVEIK
notes: Human IgG1
- Kd (human IL-6 [1]): 0.258 nM
- koff (human IL-6 [1]): 0.000562 s⁻¹
- kon (human IL-6 [1]): 2.18e+06 M⁻¹ s⁻¹
- Kd (human IL-6 [2]): 0.209 nM
- koff (human IL-6 [2]): 0.00038 s⁻¹
- kon (human IL-6 [2]): 1.82e+06 M⁻¹ s⁻¹

B7: anti-IL-6 antibody, heavy chain T63K, G66D / light chain M32L, M50D, N52S, M88Q (antibody, human IgG1, V domains shown)
VH: EVQLVESGGGLVQPGGSLRLSCAASGFTFSPFAMSWVRQAPGKGLEWVAKISPGGSWTYYSDKVTDRFTFSLDTSKSTAYLQMNSLRAEDTAVYYCARQLWGYYALDIWGQGTLVTVSS
VL: DIQLTQSPSSLSASVGDRVTITCSASISVSYLYWYQQKPGKAPKLLIYDDSSLASGVPSRFSGSGSGTDFTLTISSLQPEDFATYYCQQWSGYPYTFGQGTKVEIK
notes: Human IgG1
- Kd (human IL-6 [1]): 0.246 nM
- koff (human IL-6 [1]): 0.000529 s⁻¹
- kon (human IL-6 [1]): 2.15e+06 M⁻¹ s⁻¹
- Kd (human IL-6 [2]): 0.252 nM
- koff (human IL-6 [2]): 0.000401 s⁻¹
- kon (human IL-6 [2]): 1.59e+06 M⁻¹ s⁻¹

Reference: patent publication US20240209076A1 (KODIAK SCIENCES, published 2024)
